Assay: yeast display, Sf9 membrane polyspecificity reagent, FACS + sequencing; frameworks hold sequencing errors
Outline: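 Galactose induction of a Saccharomyces cerevisiae BJ5465 synthetic nanobody display library ran 36–48 hours. The cells were then stained for 1 hour at 4 °C with 10% biotinylated, detergent-solubilized Sf9 membrane reagent, pulled down on streptavidin microbeads and FACS-sorted into low and high (top ~1%) gates on expression and reagent-binding fluorescence. Labels for polyreactivity follow the gate of origin.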
With “QVQLVESGGGLVQAGGSLRLSCAASGSTFSVYAMGWYRQAPGKERELVATITWNGGRTYYADSVKGRFTISRDNAKNTVYLQMNSLKREDTAVYYCASPWLKPGNGIYGGYGYWGQGTQVTVSS” the “polyreactivity (PSR sort gate)” value was “high polyreactivity”. With “QVQLVESGGGLVQAGGSLRLSCAASGSTFSWNTMGWYRQAPGNERELVAAINSGGSTYYADSVKGRFTISRDNAKNTVYLQMNSLIPEDTAVYYCASRTKYYGRFDYWGQGTQVTVSS” the “polyreactivity (PSR sort gate)” value was “low polyreactivity”. For “QVQLVESGGGLVQAGGSLRLSCAASGSTFSYNAMGWYIQAPGKERELVAAISWSGGSTYYADSVKGRFTISRDYAKNTVYLQMNSLKPEDTAVYYCAADSPYGYYEGDYWGQGTQVTVSS”, the “polyreactivity (PSR sort gate)” value was “low polyreactivity”. In the case of “QVQLVESGGGLVQAGGSLRLSCAASGSTFSYNAMGWYRQAPGKERELVAAFSFISGSTYYADSVKGRFTISRDNAKNTVYLQMNSLKPEDTAVYFCAKRYRLRGRYDYWGQGTQVTVSS”, the “polyreactivity (PSR sort gate)” value is reported as “high polyreactivity”. With “QVQLVESGGGLVQAGGSLRLSCAASGSTFSYNTMGWYRQAPGKERELVATIDFNGGSTYYADSVKGRFTISRDNAKNTVYLQMNSLKPEDTAVYYCNADRYPYWGYDYWGQGTQVTVSS” the “polyreactivity (PSR sort gate)” value was “low polyreactivity”. With “QVQLVESGGGLVQAGGSLRLSCAASGSTFSYYALGWYRQAPGKEREFVAAISRSGGRTYYADSVKGRFTFSRDNAKNTVYLQMNSLKPEDTAVYYCATVYYYDFSRTHPWPGDYWGQGTQVTVSS” the “polyreactivity (PSR sort gate)” value was “high polyreactivity”. For “QVQLVESGGGLVQAGGSLRLSCAASGSTFSYYAMGGYRQEPGKERELVAAISRGTRTYYADSVKGSFSISRDNAKNTVYLLMNSLKAEDTAVYYCAADLWYTRYYYWGQGTQVTVSS”, the “polyreactivity (PSR sort gate)” value was “high polyreactivity”. In the case of “QVQLVESGGGLVQAGGSLRLSCAASGSTFSYYAMGWYIQAAGKERELVADITLNGGDTYYADSVKGRFTISRDNAKNTVYLQMNSLKPEDTAVYYCAKDSTADELTGFDYWGQGTQVTVSS”, the “polyreactivity (PSR sort gate)” value is reported as “low polyreactivity”. In the case of “QVQLVESGGGLVQAGGSLRLSCAASGSTFSYYAMGWYRQAPGKEREFVAAISYSTTSTFYADSVKGRFTISRDNAKNTVYLQMNSLKPEDTAVYYCAARARYSPATYDYWGQGTQVTVSS”, the “polyreactivity (PSR sort gate)” value is reported as “high polyreactivity”. In the case of “QVQLVESGGGLVQAGGSLRLSCAASGSTFSYYAMGWYRQAPGKEREFVASISWRGGSTYYADSVKGRFTISRDNAKNTVYLQMNRLKPEDTAVYYCAASSRSRWSGYRYDYWGQGTQVTVSS”, the “polyreactivity (PSR sort gate)” value is reported as “high polyreactivity”. With “QVQLVESGGGLVQAGGSLRLSCAASGSTFSYYAMGWYRQAPGKERELVAAISGRGGSTYYADSVKGRFTISRDNAKNTVYLQMNSLKPEDTAVYYCAKGRLYTAYGLYSWGQGTQVTVSS” the “polyreactivity (PSR sort gate)” value was “high polyreactivity”. For “QVQLVESGGGLVQAGGSLRLSCAASGSTFSYYAMGWYRQAPGKERELVAAISSRGGSTYYADSVKGRFTISRDNAKNTVYLQMNSQKPEDTAVYYCNADHQFRSSVSGDHDYWGQGTQVTVSS”, the “polyreactivity (PSR sort gate)” value was “high polyreactivity”. For “QVQLVESGGGLVQAGGSLRLSCAASGSTFSYYAMGWYRQAPGKERELVAAISWSGGSTYYADSVKGRFTISRDNAKNTVYLQMNSLKPEDTAVYYCAIVTRKTYYVGNGDYWGQGTQVTVSS”, the “polyreactivity (PSR sort gate)” value was “high polyreactivity”. For “QVQLVESGGGLVQAGGSLRLSCAASGSTFSYYAMGWYRQAPGKERELVAANTSGCRSKYADSVKGRFTISRDNAKNTVYLQINSLKPEDTAVYYCAKRIENFSGSLAGRWYDYWGQGTQVNVSS”, the “polyreactivity (PSR sort gate)” value was “high polyreactivity”. In the case of “QVQLVESGGGLVQAGGSLRLSCAASGSTFSYYAMGWYRQAPGKERELVADISSGGSTNYADSVKGRFTISRDNAKNTVYLQMNSLKPEDTAVYYCNRRYSYYDGFDYWGQGTQVTLSS”, the “polyreactivity (PSR sort gate)” value is reported as “low polyreactivity”. With “QVQLVESGGGLVQAGGSLRLSCAASGSTFSYYDMGWYREAPGKERELVAVITTSGVSTYYADSVKGRFTISRDNAKNTVYLQMNSLKPEDTAVYYCNADYGYDSVVEYDYWGQGTQVTVSS” the “polyreactivity (PSR sort gate)” value was “low polyreactivity”. In the case of “QVQLVESGGGLVQAGGSLRLSCAASGSTFSYYGMGWYRQAPGKERELVAAIDYSGDSTYYADSVKGRFTISRDNAKNTVYLQMNSMKPEDTALYYCNAAHSVRHYAIHLGYWGQGTQVTVSS”, the “polyreactivity (PSR sort gate)” value is reported as “low polyreactivity”. With “QVQLVESGGGLVQAGGSLRLSCAASGSTFSYYTMGWYRQAPGKERELVAAISRTGGSTYYADSVKGRFTISRDNAKNTVYLQMNSLKPEDTAVYYCAAKGYVGRYDYWGQGTQVTVSS” the “polyreactivity (PSR sort gate)” value was “high polyreactivity”. With “QVQLVESGGGLVQAGGSLRLSCAASGSTFTDNTMGWYRQAPGKERELVAAISGVGSTYYADSVKGRFTISRDNAKNTVYLQLNSLKPEVSAVYYCAKPYYDGRTHFVSWGQGTQVTVSS” the “polyreactivity (PSR sort gate)” value was “low polyreactivity”. With “QVQLVESGGGLVQAGGSLRLSCAASGSTFTDYAMGWYRQAPGKERELVAAIDSGGITNYADSVKGRFTISRDNAKNTVYLQMNSLKPEDTAVYYCNADSSKFYSHGEYEYWGQGTQVTVSS” the “polyreactivity (PSR sort gate)” value was “low polyreactivity”. For “QVQLVESGGGLVQAGGSLRLSCAASGSTFTDYAMGWYRQAPGKERELVAAITKSGGSTYYADSVKGRFTISRDNAKNTVYLQMNSLKPEDTAVYYCAAGNHRRPADYGSWGQGTQVTVSS”, the “polyreactivity (PSR sort gate)” value was “low polyreactivity”. For “QVQLVESGGGLVQAGGSLRLSCAASGSTFTDYDMGWYRQAPGKERELVAAISSGGSTYYADSVKGRFTISRDNAKNTVYLQMNSLKPEDTAVYYCAAVLGVWGGVGSEGDYWGQGTQVTVSS”, the “polyreactivity (PSR sort gate)” value was “low polyreactivity”. In the case of “QVQLVESGGGLVQAGGSLRLSCAASGSTFTENAMGWYRQAPGKERELVATISTSDGSTHYADSVKGRFTISRDNAKNTVYLQMNSLKPEDTAVSYCAARPDYYLWHGYYTRRHYYWGQGTQVTVSS”, the “polyreactivity (PSR sort gate)” value is reported as “low polyreactivity”. With “QVQLVESGGGLVQAGGSLRLSCAASGSTFTFNAMGWYRQAPGKERELVAVISSGGSTYYADSVKGRFTISRDNAKNTVYLQMNSLKPEDTAVYYCNKVYGYFGQYYLRYNYWGQGTQVTVSS” the “polyreactivity (PSR sort gate)” value was “low polyreactivity”. In the case of “QVQLVESGGGLVQAGGSLRLSCAASGSTFTFNAMGWYRQATGKERELVAAITRSGTSTYYADSVKGRFTISRDNAKNTVYLQMNSLKPEDNAVYYCAAGRLWKTYEYYYWGQGTQVTVSS”, the “polyreactivity (PSR sort gate)” value is reported as “high polyreactivity”. For “QVQLVESGGGLVQAGGSLRLSCAASGSTFTFYAMGWYRQAPGKQRELVATISSSGVSTSYADSVKGRFTISRDNAKNTVDLEMNSLKPEDTAVYYCNAGYRRRFIFDYWGQGTQVTVSS”, the “polyreactivity (PSR sort gate)” value was “low polyreactivity”. With “QVQLVESGGGLVQAGGSLRLSCAASGSTFTGYTMGWYRQAPGKEREFVAAISSRGGSTYYADSVKGRFTISRDNAKNTVFLQMNSLKPEETAVYYCAAKVWARVDGRQFRMEYWGQGTQVTVSS” the “polyreactivity (PSR sort gate)” value was “high polyreactivity”. For “QVQLVESGGGLVQAGGSLRLSCAASGSTFTKYSMGWYRQAPGKERELVAAITGSGGRTYYADSEKGRFTISRDNAKNTVYLQMNSLKPEDTAVYYCAAEKAAGWYSGYDYWGQGTQVTVSS”, the “polyreactivity (PSR sort gate)” value was “high polyreactivity”. For “QVQLVESGGGLVQAGGSLRLSCAASGSTFTLNAMGWYRQAPGKERELVADISWSSGRTYYADSVKGRFTISRDTAKNTVYLQMNSLKPEDTAVYYCATEDFWNVKFYAYYPEFDYWGQGTQVTVSS”, the “polyreactivity (PSR sort gate)” value was “low polyreactivity”. For “QVQLVESGGGLVQAGGSLRLSCAASGSTFTLYAMGWSRPAPGKERELVATISWNGGRTYYADSVKGRFTISRDNAKNTVYLQMNSLKPEDTAVYYCAADTYDADYDYWGQGTQVTVSS”, the “polyreactivity (PSR sort gate)” value was “high polyreactivity”. In the case of “QVQLVESGGGLVQAGGSLRLSCAASGSTFTLYAMGWYRQAPGKERELVASITASDGSTSYADSVKGRFTISRDNAKNTVYLQMNSLKPEDTAVYYCAARYRVRGISYYYWGQGTQVTVSS”, the “polyreactivity (PSR sort gate)” value is reported as “low polyreactivity”. With “QVQLVESGGGLVQAGGSLRLSCAASGSTFTLYAMGWYRQAPGKERELVATITGSGGSTNYADSVKGRFTISRDNAKNTVYLQMNSLKPEDTAVYYCAADYAVYSFTEFNYWGHGTQVTVSS” the “polyreactivity (PSR sort gate)” value was “high polyreactivity”. In the case of “QVQLVESGGGLVQAGGSLRLSCAASGSTFTNYAMGWYRQAPGKERELVAAIDRRDGTTYYADSVKGRFTISRDNAKNTVYLQMNSLKPEDTAVYYCAADRDYSADVPGYYYWGQGTQVTVSS”, the “polyreactivity (PSR sort gate)” value is reported as “low polyreactivity”. With “QVQLVESGGGLVQAGGSLRLSCAASGSTFTPNAMGWYRQAPGKERELVAAINWSDSSTYYADSVKGRFTISRDNAKNTVYLQMNSLKPEETAVYYCAAAAQYGQLQVPVYYWGQGTQVTVSS” the “polyreactivity (PSR sort gate)” value was “low polyreactivity”. With “QVQLVESGGGLVQAGGSLRLSCAASGSTFTPYAMGWYRQAPGKERELVAAISWSDDSTYYADSVKGRFTISRDNAKNTVYLQMNSLKPEDTAVYYCAASAYVDYGVYTYIMDYWGQGTQVTVSS” the “polyreactivity (PSR sort gate)” value was “high polyreactivity”. For “QVQLVESGGGLVQAGGSLRLSCAASGSTFTPYAMGWYRQAPGKERELVAAITWRGGSTYYADSVKGRFTISRDNAKNTVYLQMNSLKPEDTAVYYCAAEDYLYFFYAYGYWGQGTQVTVSS”, the “polyreactivity (PSR sort gate)” value was “high polyreactivity”. In the case of “QVQLVESGGGLVQAGGSLRLSCAASGSTFTPYTMGWYRQAPGKERELVATITGSDGSTYYADSVKGRFTISRDNAKNTVYLQMNSLKPEDTAVYYCYADETRWTWDPFSYICDDYWGQGTQVTVSS”, the “polyreactivity (PSR sort gate)” value is reported as “low polyreactivity”. For “QVQLVESGGGLVQAGGSLRLSCAASGSTFTPYVMGWYRQAPGKEREMVASITGGGGSTYADSVKGRFTISRDNAKNTVYVQMNSLKPEDTAVYYCAAELYRSNVYHYDYWGQGSQVTVSS”, the “polyreactivity (PSR sort gate)” value was “high polyreactivity”. In the case of “QVQLVESGGGLVQAGGSLRLSCAASGSTFTRNAMGWYRQAPGKERELVAVISSRGGRTYYADSVKGRFTISRDNAKNTVYLQMNSLKPEDTAVYYCAARYVIPLGNSYDYWGQGTQVTVSS”, the “polyreactivity (PSR sort gate)” value is reported as “high polyreactivity”. In the case of “QVQLVESGGGLVQAGGSLRLSCAASGSTFTRYAMGWYRQEPGKERELVAAITRRGVSTYYSDSVKGRFTISLDNAKNTVYLQMNSLKPEDTAVYYCNADVEHYSTLSEYWGQGTQVTVSS”, the “polyreactivity (PSR sort gate)” value is reported as “high polyreactivity”. With “QVQLVESGGGLVQAGGSLRLSCAASGSTFTSNTRWYRPAPGKERELVAAISSSGRTYYADSVKGRFTISRDNAKNTVYLQMNSLKPEDTAVYYCAARGREFGYWGQGTQVTVSS” the “polyreactivity (PSR sort gate)” value was “high polyreactivity”. In the case of “QVQLVESGGGLVQAGGSLRLSCAASGSTFTSYAMGWYRQAPGKERELVAAISRRGTSTYYADSVKGRFTISRDNAKNTVYLQMNSLKPEDTAVYYCAADGYYWEYYYWGQVTQVTVSS”, the “polyreactivity (PSR sort gate)” value is reported as “high polyreactivity”. In the case of “QVQLVESGGGLVQAGGSLRLSCAASGSTFTTHVMGWYRQAPGKERELVAAISWSSGSTYYADSVKGRFTISRDNEKNTVYLQMNSLKPEDTAVYYCDARLVIFYPYSRYYFWGQGTQVTVSS”, the “polyreactivity (PSR sort gate)” value is reported as “high polyreactivity”.
